Results taken from article PMC4740875, “Sequential domain assembly of ribosomal protein S3 drives 40S subunit maturation” (Nature Communications, 2016).

T1: His6-Rps3 (S. cerevisiae, UniProt P05750 1-240)
T1 construct: Rps3, S. cerevisiae; expressed from pETDuet-1; source: E. coli BL21 (DE3) Rosetta Star, purified (Ni-NTA agarose) in complex with Yar1 or with Ltv1-Flag; not shown: His6, N-terminal, kept
T1 sequence (looked up): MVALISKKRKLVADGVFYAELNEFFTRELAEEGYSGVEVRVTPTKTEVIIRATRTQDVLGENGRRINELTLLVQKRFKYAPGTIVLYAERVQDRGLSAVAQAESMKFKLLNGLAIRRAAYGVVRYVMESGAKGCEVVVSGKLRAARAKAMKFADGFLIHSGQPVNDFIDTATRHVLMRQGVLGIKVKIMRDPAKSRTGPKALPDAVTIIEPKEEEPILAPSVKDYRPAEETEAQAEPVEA

T2: Yar1 core (8-153) (S. cerevisiae, UniProt P46683 8-153)
T2 construct: Yar1, S. cerevisiae, structural core lacking the N- and C-terminal extensions, residues 8-153; also called Yar1 structural core; Yar1(8-153)
T2 sequence (looked up): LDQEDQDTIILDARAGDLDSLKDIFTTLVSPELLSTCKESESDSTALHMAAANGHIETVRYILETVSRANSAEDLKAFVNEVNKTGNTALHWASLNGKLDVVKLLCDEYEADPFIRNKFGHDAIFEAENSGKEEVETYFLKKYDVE

T3: Enp1-Flag-TEV-ProteinA (Enp1-FPA) (S. cerevisiae, UniProt P38333 1-483)
T3 construct: Enp1, S. cerevisiae; A TEV site lies between Flag and Protein A; expressed from pET15b; source: E. coli, purified (anti-Flag agarose); not shown: Flag, C-terminal, kept; Protein A, C-terminal, kept
T3 sequence (looked up): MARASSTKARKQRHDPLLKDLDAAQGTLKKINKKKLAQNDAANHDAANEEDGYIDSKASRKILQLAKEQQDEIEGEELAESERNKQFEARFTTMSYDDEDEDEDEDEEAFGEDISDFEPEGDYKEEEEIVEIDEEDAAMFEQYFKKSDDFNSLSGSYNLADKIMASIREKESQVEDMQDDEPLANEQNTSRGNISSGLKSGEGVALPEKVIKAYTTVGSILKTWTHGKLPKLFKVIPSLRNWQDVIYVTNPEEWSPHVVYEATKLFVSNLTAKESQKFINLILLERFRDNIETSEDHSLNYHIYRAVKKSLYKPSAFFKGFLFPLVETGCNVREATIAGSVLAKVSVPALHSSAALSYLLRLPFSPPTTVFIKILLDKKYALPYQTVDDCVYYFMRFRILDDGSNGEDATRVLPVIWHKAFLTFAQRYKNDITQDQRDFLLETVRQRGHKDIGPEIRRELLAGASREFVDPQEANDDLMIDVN

B1: Yar1 of the purified His6-Rps3/Yar1 complex (natural protein, S. cerevisiae, UniProt P46683 1-200, looked up)
chain: MGLHSEPLDQEDQDTIILDARAGDLDSLKDIFTTLVSPELLSTCKESESDSTALHMAAANGHIETVRYILETVSRANSAEDLKAFVNEVNKTGNTALHWASLNGKLDVVKLLCDEYEADPFIRNKFGHDAIFEAENSGKEEVETYFLKKYDVEPEDDEEDTQTEGKNSVQITKGTEIEQVTKEATEALREETEKLNINKD
notes: Yar1, S. cerevisiae; No tag is named for Yar1 in this complex; source: E. coli BL21 (DE3) Rosetta Star, purified in complex with His6-Rps3 (Ni-NTA agarose)
B2: Flag-Yar1 (natural protein, S. cerevisiae, UniProt P46683 1-200, looked up)
chain: B1 chain
notes: Yar1, S. cerevisiae; expressed from pETDuet-1; source: E. coli, purified (anti-Flag agarose); not shown: Flag, N-terminal, kept
B3: full-length Yar1 (Yar1-FL), SAXS sample (natural protein, S. cerevisiae, UniProt P46683 1-200, looked up)
chain: B1 chain
notes: Yar1, ankyrin-repeat protein, S. cerevisiae, full-length; modelled as Yar1 (1-214 including tag; 14 N-terminal residues from the His-tag); not shown: His-tag, N-terminal, kept
B4: Rps3 N-domain (1-95) (domain or fragment, S. cerevisiae, UniProt P05750 1-95, looked up)
chain: MVALISKKRKLVADGVFYAELNEFFTRELAEEGYSGVEVRVTPTKTEVIIRATRTQDVLGENGRRINELTLLVQKRFKYAPGTIVLYAERVQDRG
notes: Rps3, S. cerevisiae, N-domain, residues 1-95
B5: full-length Rps3 (ribosomal protein S3), SAXS sample (natural protein, S. cerevisiae, UniProt P05750 1-240, looked up)
chain: T1 sequence (looked up)
notes: Rps3, S. cerevisiae, full-length; modelled as Rps3 (1-249 including tag); How the SAXS samples were produced is not described; the methods describe His6-tagged proteins from E. coli BL21 (DE3) Rosetta Star in general; also called r-protein S3
B6: Ltv1-Flag (natural protein, S. cerevisiae, UniProt P34078 1-463, looked up)
chain: MSKKFSSKNSQRYVVVHRPHDDPSFYDTDASAHVLVPVSNPNKTSPEADLRKKDVSSTKPKGRRAHVGEAALYGINFDDSEYDYTQHLKPIGLDPENSIFIASKGNEQKVEKKNIEDLFIEPKYRRDEIEKDDALPVFQRGMAKPEYLLHQQDTTDEIRGFKPDMNPALREVLEALEDEAYVVNDDVVVEDISKKTQLQGDNYGEEEKEDDIFAQLLGSGEAKDEDEFEDEFDEWDIDNVENFEDENYVKEMAQFDNIENLEDLENIDYQADVRRFQKDNSILEKHNSDDEFSNAGLDSVNPSEEEDVLGELPSIQDKSKTGKKKRKSRQKKGAMSDVSGFSMSSSAIARTETMTVLDDQYDQIINGYENYEEELEEDEEQNYQPFDMSAERSDFESMLDDFLDNYELESGGRKLAKKDKEIERLKEAADEVSKGKLSQRRNRERQEKKKLEKVTNTLSSLKF
notes: Ltv1, S. cerevisiae; expressed from pET15b; source: E. coli, purified (anti-Flag agarose); also co-expressed in E. coli with His6-Rps20 (in lysate) and purified in complex with His6-Rps3; not shown: Flag, C-terminal, kept

Experiments:
His6-Rps3 [1] = biological target: T1, His6-Rps3; experiment: pull-down; in vitro competition: purified His6-Rps3/Yar1 complex immobilized on Ni-NTA agarose, incubated with buffer or an ∼6-fold molar excess (over Rps3) of purified Ltv1-Flag and/or Enp1-FPA; supernatants and eluates by Coomassie or western blot; settings: both partners purified
His6-Rps3 [2] = biological target: T1, His6-Rps3; experiment: pull-down; in vitro competition: purified His6-Rps3/Ltv1-Flag complex immobilized on Ni-NTA agarose, incubated with buffer or an ∼1.5-fold or 6-fold molar excess of purified Flag-Yar1; eluates and supernatants by Coomassie or western blot; settings: both partners purified
[3] = biological target: B5; experiment: SAXS; small-angle X-ray scattering in solution, direct injection or size exclusion separation before data collection; Tris-HCl 50 mM and NaCl 200 mM, pH 7.5; Rps3 constructs measured in complex with Yar1 constructs; settings: both partners purified
Yar1 core (8-153) = biological target: T2, Yar1 core (8-153); experiment: as above; settings: both partners purified
[4] = biological target: B3; experiment: as above; settings: both partners purified
[5] = biological target: the molecule itself; experiment: as above
[6] = biological target: T3, Enp1-Flag-TEV-ProteinA (Enp1-FPA); experiment: pull-down; in vitro competition: purified His6-Rps3/Yar1 complex immobilized on Ni-NTA agarose, incubated with buffer or an ∼6-fold molar excess (over Rps3) of purified Ltv1-Flag and/or Enp1-FPA; supernatants and eluates by Coomassie or western blot; settings: both partners purified

Binder: B1
binding result (His6-Rps3 [1]): binds

Binder: B2
binding result (His6-Rps3 [2]): binds

Binder: B3
binding result [3]: binds

Binder: B4
binding result (Yar1 core (8-153)): binds
binding result [4]: binds

Binder: B5
stoichiometry N [5]: 2

Binder: B6
binding result [6]: binds
